Data as given in US20170306050A1.

Assays:
Experiment in all cases: cell-based or functional assay
[1] = target: CXCL10
[2] = target: T1, CXCL11
T1 sequence (O14625 22-94, species assumed, looked up): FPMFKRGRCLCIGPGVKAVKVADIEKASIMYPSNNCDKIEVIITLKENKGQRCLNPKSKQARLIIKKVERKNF

[3] = target: T2, CXCL9
T2 sequence (Q07325 23-125, species assumed, looked up): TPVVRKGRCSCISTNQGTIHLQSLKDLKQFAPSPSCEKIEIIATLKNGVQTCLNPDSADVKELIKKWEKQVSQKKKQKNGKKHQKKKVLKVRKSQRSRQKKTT

Measured: in vitro enzymatic cleavage; T cell migration assay

Sequence of MMP9 (Example 10, in vitro enzymatic analyses) (enzyme) (P41245 108-730): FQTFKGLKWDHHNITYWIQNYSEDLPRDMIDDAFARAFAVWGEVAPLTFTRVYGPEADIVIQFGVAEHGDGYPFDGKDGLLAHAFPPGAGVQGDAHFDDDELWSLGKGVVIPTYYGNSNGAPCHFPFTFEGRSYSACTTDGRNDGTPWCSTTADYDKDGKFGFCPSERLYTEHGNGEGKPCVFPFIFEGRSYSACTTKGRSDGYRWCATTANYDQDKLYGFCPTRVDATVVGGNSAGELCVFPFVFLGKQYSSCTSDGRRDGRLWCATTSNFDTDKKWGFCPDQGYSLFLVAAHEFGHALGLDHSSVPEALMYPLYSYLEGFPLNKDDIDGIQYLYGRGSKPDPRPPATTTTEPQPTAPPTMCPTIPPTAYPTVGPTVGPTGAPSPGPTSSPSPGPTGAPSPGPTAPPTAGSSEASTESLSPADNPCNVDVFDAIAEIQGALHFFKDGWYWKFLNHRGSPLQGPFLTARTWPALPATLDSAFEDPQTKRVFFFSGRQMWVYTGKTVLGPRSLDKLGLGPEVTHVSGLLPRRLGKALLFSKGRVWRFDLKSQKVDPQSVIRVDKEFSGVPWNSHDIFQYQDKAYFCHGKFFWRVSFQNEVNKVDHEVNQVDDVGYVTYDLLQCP
Sequence of CXCL10 (P02778 22-98): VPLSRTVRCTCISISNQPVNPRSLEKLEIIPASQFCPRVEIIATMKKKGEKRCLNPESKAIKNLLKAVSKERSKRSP

MMP9 (Example 10, in vitro enzymatic analyses) (enzyme)
< 88%: all assays above
